Measured values reported in paper PMC10562830.

Biological target: Chikungunya virus-like particles of the 37997 strain (chikungunya virus (strain 37997))

B1: 506.C01 (antibody, V domains shown)
VH: QVQLQESGPGLVKPSQTLSLTCTVSGGSISSDDYYWTWIRLPPGKGLEWIGYIFYTGGTYYNPSLKSRVTISLDRSKNQFSLKLSSVTAADTAVYFCARAPETYCSTTNCYKGYFDSWGQGTLVTVSS
VL: DIQMTQSPSSVSASVGDRVTITCRASQGISSWLGWYQQKPGKAPKLLIYAASSLQSGVPSRFSGSGSGTDFTLTISSLQPEDFATYYCQQANSFPRTFGQGTKVEIK
Work on B1 yielded an FRNT neutralisation of CHIKV-37997 and CHIKV-LR 2006 on Vero cells, EC50 of less than 10 ng/mL.
